{"source": "patent US20170014494", "test_system": "flag-tagged SUMO1", "sequence (chain, as listed by the source)": "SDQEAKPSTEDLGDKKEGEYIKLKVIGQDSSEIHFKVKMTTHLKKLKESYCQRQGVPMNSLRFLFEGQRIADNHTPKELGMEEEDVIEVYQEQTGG"}
{"substance": "SERCA2a wild type (WT), expressed from a plasmid in HEK293 cells", "values": [{"measurement": "Vmax of Ca2+-dependent ATPase activity of WT SERCA2a with co-expression of SUMO1", "result": "98.58 ± 1.83", "unit": "nmol/min/mg"}]}
